Here are results for one molecule from patent publication US20240092853A1 (Hoffmann-La Roche, published 2024).

The assay deals with T1, IL2R(bg)-Fc construct (human IL2R beta extracellular domain fused to Fc(knob) with avi tag, human IL2R gamma … (human, biotin on the C-terminal avi tag (co-expressed BirA))).
T1 construct: Knob-into-hole Fc heterodimer; also called IL2Rβγ; human heterodimeric IL-2 receptor beta/gamma
Put plainly: ELISA: IL2R(bg)-Fc coated ('100nM IL2R coated'), soluble IL2v in bacterial supernatant adjusted to pH 6 or pH 7.4, washing at the same pH, detection with anti-Flag/HRP. As for the experimental part:
Bacterial supernatant was harvested by centrifugation and pH was adjusted to either pH 6 or pH 7.4 using Bis-Tris buffer (final concentration: 50 mM BisTris, 140 mM NaCL). Supernatant was incubated in Neutravidin plates that were previously coated with the biotinylated IL2R(bg)-Fc construct and blocked with BSA. While extensive washing after 1 h was performed with Bis-Tris washing buffer at the respective pH 6 or 7.4 (50 mM BisTris, 140 mM NaCL, 0.1% Tween), all subsequent steps were performed at pH 6 to avoid any pH-dependent secondary effects. Binding of IL2v to the IL2R(bg)-Fc construct was detected via Flag tag by using an anti-Flag/HRP secondary antibody.

T1 sequence (chain, as listed by the source limits assumed, chain 1 of 2): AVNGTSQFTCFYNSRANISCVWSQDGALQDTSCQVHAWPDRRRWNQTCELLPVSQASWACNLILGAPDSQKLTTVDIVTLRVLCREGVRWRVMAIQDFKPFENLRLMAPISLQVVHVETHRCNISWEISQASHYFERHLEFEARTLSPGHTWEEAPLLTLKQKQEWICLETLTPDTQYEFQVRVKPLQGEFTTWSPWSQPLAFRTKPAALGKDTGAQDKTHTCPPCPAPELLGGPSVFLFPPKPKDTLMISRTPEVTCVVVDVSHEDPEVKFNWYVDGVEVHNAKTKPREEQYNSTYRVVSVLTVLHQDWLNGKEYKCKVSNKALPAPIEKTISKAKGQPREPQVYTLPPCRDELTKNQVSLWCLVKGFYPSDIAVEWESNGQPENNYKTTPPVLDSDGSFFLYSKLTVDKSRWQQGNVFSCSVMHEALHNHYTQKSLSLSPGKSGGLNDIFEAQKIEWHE
T1 sequence (chain, as listed by the source limits assumed, chain 2 of 2): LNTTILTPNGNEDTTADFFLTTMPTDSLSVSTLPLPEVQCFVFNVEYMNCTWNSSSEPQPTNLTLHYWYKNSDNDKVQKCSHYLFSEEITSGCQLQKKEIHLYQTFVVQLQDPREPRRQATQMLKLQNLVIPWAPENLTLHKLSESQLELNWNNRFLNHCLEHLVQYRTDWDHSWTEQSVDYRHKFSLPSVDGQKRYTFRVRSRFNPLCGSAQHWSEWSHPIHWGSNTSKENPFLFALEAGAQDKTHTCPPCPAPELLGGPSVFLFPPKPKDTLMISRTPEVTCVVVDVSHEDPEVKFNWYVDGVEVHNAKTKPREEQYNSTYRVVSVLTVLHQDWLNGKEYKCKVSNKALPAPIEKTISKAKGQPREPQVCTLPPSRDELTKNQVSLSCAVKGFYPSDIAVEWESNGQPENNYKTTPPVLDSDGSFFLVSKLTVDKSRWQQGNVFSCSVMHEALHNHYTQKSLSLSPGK

B1: IL2v (soluble, from the phagemid, in bacterial supernatant) (ligand)
chain: APASSSTKKTQLQLEHLLLDLQMILNGINNYKNPKLTRMLTAKFAMPKKATELKHLQCLEEELKPLEEVLNGAQSKNFHLRPRDLISNINVIVLELKGSETTFMCEYADETATIVEFLNRWITFAQSIISTLT
notes: human IL-2 with T3A, F42A, Y45A, L72G, C125A; also called parental IL2v; not shown: C-terminal His tag and Flag tag of the phagemid
Consider B1, for which the binding result is listed as “binds”.
